Assay results taken from the supplement of paper PMC9170038.

Tested on: MS2 coat protein
Test: apparent KD of MS2 coat protein; designed switch direction (-1 OFF switch, 1 ON switch): -1; higher = weaker reporter binding
In short: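 SNAP-549-labelled MS2 coat protein was titrated, doubling from 0.7 or 1.5 nM to 3 µM, over designed RNA switches transcribed on Illumina chips by stalled E. coli RNA polymerase. Runs were done without input, with 200 uM small-molecule ligand, or with an oligonucleotide input. Apparent KD is the per-design median over clusters of curve-fitted normalised fluorescence.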

[1] = Eterna round: R95, input ligand: microRNA oligo, concentration not stated
[2] = Eterna round: R95, input ligand: FMN 200 uM
[3] = Eterna round: R95, input ligand: none
[4] = input ligand: microRNA oligo, concentration not stated

| Sequence | apparent KD of MS2 coat protein (input ligand: FMN 200 uM) [nM] | apparent KD of MS2 coat protein (input ligand: none) [nM] | apparent KD of MS2 coat protein [1] [nM] | apparent KD of MS2 coat protein [2] [nM] | apparent KD of MS2 coat protein [3] [nM] | apparent KD of MS2 coat protein [4] [nM] |
| --- | --- | --- | --- | --- | --- | --- |
| ACGCCCUGAGGAUAUCUUAUCCCGUACAUGAGGAUCACCCAUGUUUUCCUCCGGGCUUCGAGAGAAGGCAGGCCCA [Armus14] (Eterna round: R97, puzzle: Exclusion 5) | 88 | 39 | – | – | – | – |
| UUUAUGUCAGGAUAUGAGUAGUAGAACAAUAGUACUACUACUCAGAAGGGACAUGAGGAUCACCCAUGUUCUUC [Fiskers Ex 4 Super stable 44 mod 23] (puzzle: Exclusion 4) | – | – | 16.3 | – | – | – |
| AAAGUGUCAGGAUAUUGUUAGUUUAGUUGUUUGUAUUAGUUCGAGAAGGGACAUGAGGAUCACCCAUGUUGUAA [Ex4 #64] (Eterna round: R97, puzzle: Exclusion 4) | 24.5 | 32.2 | – | – | – | – |
| CCUGUGCUAUAGGAUAUGGCUUAGCAAUAUGCGCCAGAAGGAUAGACAUGAGGAUCACCCAUGUACGACGAAGC [Eternabot (L2) Solution 65] (Eterna round: R97, puzzle: Exclusion 6) | 35.9 | 24.3 | – | – | – | – |
| AGAUCACAUGAGGAUCACCCAUGUCAGGAUAUCGUCACUGGAGCUGCGGCUCCAGUGACGAGAAGGGAUAAUUA [E1/4-A3] (Eterna round: R97, puzzle: Exclusion 1) | 92.4 | 52 | – | – | – | – |
| AAAAUACAUGAGGAUCACCCAUGUUAGGAUAUGCAAAGCCCAGUUAGCUUUUGGGUAGGUAGAAGGGACGGGUA [Reenen] (puzzle: Exclusion 1) | – | – | 21.5 | – | – | – |
| AAAAAGCGAGGAUAUACAUGAGGAUCACCCAUGUGAGGGCACCGCGGGCGCGGGACCGGUAGAAGGCGCAAAAA [Exc;s3-II] (puzzle: Exclusion 3) | – | – | 24.1 | 33.6 | 38.5 | – |
| ACAUUGCGAGGAUAUACAUGAGGAUCACCCAUGUGGUGGCAGUUACGGUAGGACUAGUGUAGAAGGUGCCAUGG [EX3 #23] (Eterna round: R97, puzzle: Exclusion 3) | 441 | 401 | – | – | – | – |
| UCGUGAUUAGAGGAUAUAUUUUGAGUCAGAACAAUAGAAGGCUAAACAUGAGGAUCACCCAUGUAUAUGUGUAA [JR_Ex6_Sub062] (Eterna round: R97, puzzle: Exclusion 6) | 140 | 46.7 | – | – | – | – |
| UUAUACGUUGAGGAUAUGUCAGUUAGUAUAUUUACAGAAGGCGAUACAUGAGGAUCACCCAUGUUUAUGGGCAU [Ex-6 Malc#3] (puzzle: Exclusion 6) | – | – | 127 | – | – | – |
| GAGGGAGGAGGAUAUUCCUUCGAGAACAUGAGGAUCACCCAUGUGUUAUAUCGAAAGCCCGAAGAAGGCCUCGCUA [Eternabot (Original) Solution 50] (Eterna round: R97, puzzle: Exclusion 5) | 17.5 | 20.2 | – | – | – | – |
| GAUAGAGCAGGAUAUCGAGAUCCGCACAUGAGGAUCACCCAUGUUCGGUCGAAAGACCGACGAGAAGGGCUGUAUC [Omei Ex5 E7] (Eterna round: R97, puzzle: Exclusion 5) | 838 | 4190 | – | – | – | – |
| AAAACAAACGAAGGAUAUGCAACCCGGCGGUACGCAGAAGGUCGAAAGAUUUUCAUUCUACAUGAGGAUCACCCAUGUACGGGC [Leange] (Eterna round: R96, puzzle: Exclusion NG 1) | 48.5 | 52.3 | – | – | – | 39.7 |
| CUGUUUUCCGCAGGAUAUGCUCCUCCAUUAUUUGCAGAAGGGCGUUGAACAUGAGGAUCACCCAUGUAUGGAAAUGACUAUUGC [JR_ExcNG1_Sub069] (Eterna round: R96, puzzle: Exclusion NG 1) | 19.5 | 16.5 | – | – | – | 11.2 |
| GCACGGAGUGUAGGAUAUUAGUGCGAUUAGCACUGAGAAGGACAUGAGGAUCACCCAUGUUCCUCUAAAAUUAGCCUUCCGUGC [Eli exng1 - 036] (Eterna round: R96, puzzle: Exclusion NG 1) | 12.4 | 14.8 | – | – | – | 10.7 |
| UACAUGAGGAUCACCCAUGUUUUGUCGUGUAUGGUAUUUAUCUAGGAUAUCAAUGUAGUUAUUUAUGAGAAGGAGAAUAUUAAU [JMF's solution 41] (Eterna round: R96, puzzle: Exclusion NG 3) | 43 | 50.8 | – | – | – | 37.5 |
| CCUGAGGUUUGGUAGAAAACAUGAGGAUCACCCAUGUAUGUGCAGGAUAUCGACCGGCUCGCUGCCGAGAAGGGCAUCUACAUA [Eternabot solution 31] (Eterna round: R96, puzzle: Exclusion NG 3) | 45.4 | 36.9 | – | – | – | 24.8 |
| CUCAUGUGAGGAUAUGUGAUCAACCUUCUAUAUAGAUGAUUACAGAAGGCACAUGAGGAUCACCCAUGUAGAUC [Ex4 - 3 - 23] (puzzle: Exclusion 4) | – | – | 21.1 | – | – | – |
| CUUUAGUGAGGAUAUCAGUAGUAAUACAAUAGUAUUACUACUGAGAAGGCACAUGAGGAUCACCCAUGUUCUUC [Mat - Exclusion 4 - Mod of Omei - D77] (puzzle: Exclusion 4) | – | – | 18.8 | – | – | – |
| GUGCAGCUAGGAUAUACCGAAUGGGCCGAGCCGAAAAUAUUACAUGAGGAUCACCCAUGUAGAAGGAGCCAAUU [Eternabot (Original) Solution 22] (Eterna round: R97, puzzle: Exclusion 2) | 64.5 | 34.7 | – | – | – | – |
| GAUGGACAUGAGGAUCACCCAUGUAAGGAUAUACGGUUGGUAGAGAGAGAGAGGAAUGGUAGAAGGUACGGAGG [JR_Exclu1_Sub052] (puzzle: Exclusion 1) | – | – | 43.1 | 38.7 | 55.9 | – |
| UAUAUAUAGUAAGGAUAUGUAUUUAUCUUAUAAACAGAAGGUACUGACAUGAGGAUCACCCAUGUUUUAGUGUGGGCAUGUAGA [JMF's solution 17] (Eterna round: R96, puzzle: Exclusion NG 1) | 59.9 | 41.8 | – | – | – | 39 |
| GAGGAGCAAGGAUAUACGAGGAGAGGGAAGAGAGGAGAGAGACAUGAGGAUCACCCAUGUAGAAGGUGCAAGGA [JR_Exclu2_Sub092] (puzzle: Exclusion 2) | – | – | 35.4 | 46 | 43.8 | – |
| AUCGUGAAGAAGGAUAUGGGCCCGGUAAUACGACUAGAAGGUCUGACAUGAGGAUCACCCAUGUGAUACCAAAA [Arorquis] (puzzle: Exclusion 6) | – | – | 33.3 | 32.2 | 32.5 | – |
| UAACCACAUGAGGAUCACCCAUGUGAGGAUAUGUCCAUAUUCGGCAAAUCGGAUAUGGACAGAAGGCACACCGG [JR_Exclusion1_Sub010] (puzzle: Exclusion 1) | – | – | 40.7 | – | – | – |
| CCAUGGAGUGUGAGGAUAUGCUGGUCCUUGGAUCAGCAGAAGGCACAUGAGGAUCACCCAUGUGAAUACCGUGG [Mat - Exclusion 4 - JL Mod - D83] (puzzle: Brourd's mod of Exclusion 4) | – | – | 31.4 | – | – | – |
| UUUAGUUCAGGAUAUGUAGAUAUUAACAUGAGGAUCACCCAUGUCGAUCCUGAAUUAACUACAGAAGGGAACAUUU [Mod of Brourd 5 - Jieux - Exclusion 5] (Eterna round: R97, puzzle: Exclusion 5) | 69.6 | 17.8 | – | – | – | – |
